Measured values as given in EP2404612A1, “Diagnosis, prophylaxis and therapy of Alzheimer's disease and other neurodementing disorders” (Balakrishnan, Karthikeyan, priority 2010, dated 2012).

Assay: CD spectra analysis of ß-sheet conformation
Type: physicochemical
Settings: 62.5 µM in sodium carbonate (0.05 mM)/ SDS (37.5 mM) buffer, 20°C, instantly after resuspending in buffer
Method: To compare the ß-sheets formed by the wild type and the mutated trimer, respectively, CD spectra analysis was performed. Both peptides were measured at a concentration of 62.5 µM in sodium carbonate (0.05 mM)/ SDS (37.5 mM) buffer with a JASCO J-810 spectroplarimeter (JASCO, Easton, MD, USA). Far-UV CD spectra (190-260 nm) were recorded at 20°C using a quartz cuvette with an optical path length of 1 mm. The scanning speed was set at 20 nm/min with a response time 4 second and bandwidth 2 nm.

For “wild type Aβ: wild type Aβ peptide compared with mutated Aβ (1-40; G29Ile,G33Ile) in CD spectra; length not stated”, the ß-sheet was 1%.
